This experiment addresses GST-TBP, GST-tagged full-length human TBP (human) (UniProt P20226). In words: pull-down; GST pull-down: GST-TBP, GST-TFIIB or TBP fragments on glutathione beads; analytes in buffer B2 (150 mM NaCl), 1 h at 4°C, four washes, Western blot. (In general: A western blot detects proteins with antibodies after separation by electrophoresis.)

GST-TBP, GST-tagged full-length human TBP (human), sequence (P20226 whole entry, the tested form may be a part): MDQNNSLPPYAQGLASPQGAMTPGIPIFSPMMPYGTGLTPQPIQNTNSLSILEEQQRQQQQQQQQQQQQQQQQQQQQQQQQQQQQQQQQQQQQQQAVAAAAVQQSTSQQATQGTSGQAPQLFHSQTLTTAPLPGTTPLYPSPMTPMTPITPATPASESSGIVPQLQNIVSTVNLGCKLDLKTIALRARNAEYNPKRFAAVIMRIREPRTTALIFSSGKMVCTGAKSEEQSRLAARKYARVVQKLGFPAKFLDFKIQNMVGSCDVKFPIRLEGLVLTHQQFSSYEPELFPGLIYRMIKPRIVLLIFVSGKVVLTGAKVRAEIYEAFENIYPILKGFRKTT

“SNAP complex (SNAPc) (from UniProt Q5SXM2 1-1469; Q92966 1-411; Q13487 1-334; Q16533 1-368; O75971 1-98)”: the increase in SNAPc recruitment to GST-TBP on addition of TFIIA was determined as 60%.
